Measured values taken from patent US20250018014A1, “METHOD FOR TREATING AND/OR PREVENTING REGNASE-1-RELATED DISEASE” (OSAKA UNIVERSITY, priority 2018, published 2025).
Positions of bridges follow the written chain, without caps; N, C: chain ends. Non-standard residues stand in square brackets, D forms with d. *: point of attachment. Pyrrolidide = C1CCN(*)C1; dNMeA = CN[C@H](C)C(=O)O

T1: C-terminal human Regnase-1 (amino acids 301 to 599) with N-terminal FLAG tag and C-terminal BirA recognition … (human, UniProt Q5D1E8 301-599)
T1 sequence: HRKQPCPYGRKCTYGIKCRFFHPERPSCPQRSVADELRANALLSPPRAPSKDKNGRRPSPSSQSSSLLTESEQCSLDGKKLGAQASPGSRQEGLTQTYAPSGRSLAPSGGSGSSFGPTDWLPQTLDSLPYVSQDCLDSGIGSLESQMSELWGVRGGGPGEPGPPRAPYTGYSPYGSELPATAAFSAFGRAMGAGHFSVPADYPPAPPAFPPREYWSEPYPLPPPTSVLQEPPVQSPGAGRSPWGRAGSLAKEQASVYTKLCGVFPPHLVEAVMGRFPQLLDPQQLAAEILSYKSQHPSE

T2: C-terminal domain-deleted human Regnase-1 (amino acids 1 to 546) with N-terminal FLAG tag and C-terminal BirA … (human, UniProt Q5D1E8 1-546)
T2 sequence: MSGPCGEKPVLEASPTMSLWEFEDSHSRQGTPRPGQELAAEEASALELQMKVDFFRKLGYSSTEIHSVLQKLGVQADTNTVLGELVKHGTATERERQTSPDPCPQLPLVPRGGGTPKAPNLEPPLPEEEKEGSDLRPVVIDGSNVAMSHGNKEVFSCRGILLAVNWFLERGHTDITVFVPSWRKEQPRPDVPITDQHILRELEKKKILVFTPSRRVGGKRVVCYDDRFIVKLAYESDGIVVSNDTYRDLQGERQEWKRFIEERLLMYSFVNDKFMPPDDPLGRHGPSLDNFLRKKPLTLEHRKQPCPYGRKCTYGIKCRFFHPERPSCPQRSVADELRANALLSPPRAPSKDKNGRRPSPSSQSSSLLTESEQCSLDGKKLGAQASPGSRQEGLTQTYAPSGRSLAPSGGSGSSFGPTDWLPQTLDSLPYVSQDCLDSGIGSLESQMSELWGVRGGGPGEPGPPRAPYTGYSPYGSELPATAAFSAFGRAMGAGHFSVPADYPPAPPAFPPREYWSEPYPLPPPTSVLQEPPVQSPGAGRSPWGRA

T3: full-length human Regnase-1 with a FLAG tag on the N-terminal side and a biotin ligase BirA recognition … (human, UniProt Q5D1E8 1-599, biotinylated at the BirA recognition sequence when required)
T3 sequence: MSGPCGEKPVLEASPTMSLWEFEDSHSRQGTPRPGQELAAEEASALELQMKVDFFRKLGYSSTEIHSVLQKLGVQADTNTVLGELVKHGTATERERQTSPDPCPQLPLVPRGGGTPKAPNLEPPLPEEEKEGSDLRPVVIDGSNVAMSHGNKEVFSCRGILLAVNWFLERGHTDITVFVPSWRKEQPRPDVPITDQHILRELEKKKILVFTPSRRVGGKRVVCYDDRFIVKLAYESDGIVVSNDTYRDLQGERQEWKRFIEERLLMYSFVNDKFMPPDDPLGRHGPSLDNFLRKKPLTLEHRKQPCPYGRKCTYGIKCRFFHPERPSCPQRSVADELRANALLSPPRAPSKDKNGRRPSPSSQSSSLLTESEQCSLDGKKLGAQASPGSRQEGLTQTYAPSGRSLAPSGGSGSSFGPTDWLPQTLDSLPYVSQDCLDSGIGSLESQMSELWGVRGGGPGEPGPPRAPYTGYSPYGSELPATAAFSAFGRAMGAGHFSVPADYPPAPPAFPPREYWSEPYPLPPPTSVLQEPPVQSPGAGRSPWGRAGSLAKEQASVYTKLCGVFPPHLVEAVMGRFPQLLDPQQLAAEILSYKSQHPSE


Legend:
Assay in all cases: cell-based or functional assay
[1] = target: T1, C-terminal human Regnase-1 (amino acids …)
[2] = target: T2, C-terminal domain-deleted human …
[3] = target: T3, full-length human Regnase-1 with a FLAG …
[4] = target: T1, C-terminal human Regnase-1 (amino acids …); remark: listed apart in the source
[5] = target: T2, C-terminal domain-deleted human …; remark: listed apart in the source
[6] = target: T3, full-length human Regnase-1 with a FLAG …; remark: listed apart in the source

Binder	50% inhibition concentration, Regnase-1 phosphorylation by IKKβ (AlphaScreen) [1] [µM]	50% inhibition concentration, Regnase-1 phosphorylation by IKKβ (AlphaScreen) [2] [µM]	50% inhibition concentration, Regnase-1 phosphorylation by IKKβ (AlphaScreen) [3] [µM]	50% inhibition concentration, Regnase-1 phosphorylation by TBK1 (AlphaScreen) [4] [µM]	50% inhibition concentration, Regnase-1 phosphorylation by TBK1 (AlphaScreen) [5] [µM]	50% inhibition concentration, Regnase-1 phosphorylation by TBK1 (AlphaScreen) [6] [µM]
[dNMeA]EDTPEDDHD-Pyrrolidide (lactam N-10) [PP25]	27.6	47.7	27	16.3	16.1	18.9
XWIWDFWNED (HELM PEPTIDE1{[meA].W.I.W.D.F.W.N.E.D.[C1CCN([*:1])C1]}$PEPTIDE1,PEPTIDE1,1:R1-10:R3$$$V2.0; SMILES CC[C@H](C)[C@@H]1NC(=O)[C@H](Cc2c[nH]c3ccccc23)NC(=O)[C@H](C)N(C)C(=O)C[C@@H](C(=O)N2CCCC2)NC(=O)[C@H](CCC(=O)O)NC(=O)[C@H](CC(N)=O)NC(=O)[C@H](Cc2c[nH]c3ccccc23)NC(=O)[C@H](Cc2ccccc2)NC(=O)[C@H](CC(=O)O)NC(=O)[C@H](Cc2c[nH]c3ccccc23)NC1=O) [PP24]	7.2	4	5.3	34.8	27.3	35.7
